# Assay results published in patent US20140178389A1 (AbbVie / Abbott, published 2014).
# Where a chain is given by its changes, count along the chain named.
# T1: recombinant cynomolgus IL-1β (cynomolgus, UniProt P79182 117-268)
# T1 sequence (looked up): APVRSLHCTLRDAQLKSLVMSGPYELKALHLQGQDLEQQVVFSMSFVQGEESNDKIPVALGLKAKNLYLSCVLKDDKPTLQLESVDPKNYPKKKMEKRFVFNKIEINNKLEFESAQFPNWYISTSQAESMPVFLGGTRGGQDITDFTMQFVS
# T2: recombinant human IL-1α (human, UniProt P01583 113-271)
# T2 sequence: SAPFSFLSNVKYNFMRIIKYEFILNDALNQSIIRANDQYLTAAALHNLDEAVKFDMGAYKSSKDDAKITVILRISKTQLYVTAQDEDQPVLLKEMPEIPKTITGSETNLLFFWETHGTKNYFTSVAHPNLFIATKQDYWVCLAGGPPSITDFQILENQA
# T3: recombinant cynomolgus IL-1α (cynomolgus, UniProt P79340 113-271)
# T3 sequence (looked up): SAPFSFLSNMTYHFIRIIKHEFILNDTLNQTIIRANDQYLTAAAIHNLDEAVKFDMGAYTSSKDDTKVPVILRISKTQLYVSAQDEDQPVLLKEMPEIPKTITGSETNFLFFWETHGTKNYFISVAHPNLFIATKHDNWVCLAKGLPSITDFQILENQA
# T4: native human IL-1α present in crude supernatants (human, UniProt P01583 113-271, limits assumed)
# T4 sequence (looked up): T2 sequence
# B1: Humanized monoclonal antibody 1B12.1 (antibody, V domains shown)
# VH: EVQLQESGPGLVKPSETLSLTCTVSGFSLSDYGVSWIRQPPGKGLEWLGLIWGGGDTYYNSPLKSRLTISKDNSKSQVSLKLSSVTAADTAVYYCAKQRTLWGYDLYGMDYWGQGTLVTVSS
# VL: DTQVTQSPSSLSASVGDRVTITCITSTDIDVDMNWYQQKPGKPPKLLISQGNTLRPGVPSRFSSSGSGTDFTFTISSLQPEDFATYYCLQSDNLPLTFGQGTKLEIK
# B2: DVD1-h1B12.13-SS-X3, human anti-IL-1α/β DVD IgG1/k mut (234,235) (bispecific antibody)
# heavy: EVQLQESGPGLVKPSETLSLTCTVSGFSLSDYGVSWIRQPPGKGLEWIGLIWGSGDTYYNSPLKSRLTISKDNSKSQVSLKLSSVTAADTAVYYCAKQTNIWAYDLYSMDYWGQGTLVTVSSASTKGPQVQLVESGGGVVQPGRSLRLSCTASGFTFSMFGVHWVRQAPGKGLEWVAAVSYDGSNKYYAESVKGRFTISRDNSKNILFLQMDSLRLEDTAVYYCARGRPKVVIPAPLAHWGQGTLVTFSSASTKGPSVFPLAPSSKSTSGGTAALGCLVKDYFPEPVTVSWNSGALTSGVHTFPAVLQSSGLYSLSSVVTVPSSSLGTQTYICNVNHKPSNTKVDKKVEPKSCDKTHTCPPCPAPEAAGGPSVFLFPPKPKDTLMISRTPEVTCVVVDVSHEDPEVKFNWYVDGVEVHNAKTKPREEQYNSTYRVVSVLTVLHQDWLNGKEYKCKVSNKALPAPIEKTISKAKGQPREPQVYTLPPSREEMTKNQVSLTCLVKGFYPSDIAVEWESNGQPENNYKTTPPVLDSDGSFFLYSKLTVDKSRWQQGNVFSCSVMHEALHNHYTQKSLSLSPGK
# light: DIQMTQSPSSLSASVGDRVTITCQTSTDIDDDLNWYQQKPGKAPKLLISLASTLRPGVPSRFSGSGSGTDFTFTISSLQPEDFATYYCLQSDRLPLTFGQGTKLEIKRTVAAPDIQMTQSPSSVSASVGDRVTITCRASQGISSWLAWYQQKPGKAPKLLIYEASNLETGVPSRFSGSGSGSDFTLTISSLQPEDFATYYCQQTSSFLLSFGGGTKVEHKRTVAAPSVFIFPPSDEQLKSGTASVVCLLNNFYPREAKVQWKVDNALQSGNSQESVTEQDSKDSTYSLSSTLTLSKADYEKHKVYACEVTHQGLSSPVTKSFNRGEC
# notes: also called PR-1358316
# B3: DVD2-h1B12.21-SS-X3, human anti-IL-1α/β DVD IgG1/k mut (234,235) (bispecific antibody)
# heavy: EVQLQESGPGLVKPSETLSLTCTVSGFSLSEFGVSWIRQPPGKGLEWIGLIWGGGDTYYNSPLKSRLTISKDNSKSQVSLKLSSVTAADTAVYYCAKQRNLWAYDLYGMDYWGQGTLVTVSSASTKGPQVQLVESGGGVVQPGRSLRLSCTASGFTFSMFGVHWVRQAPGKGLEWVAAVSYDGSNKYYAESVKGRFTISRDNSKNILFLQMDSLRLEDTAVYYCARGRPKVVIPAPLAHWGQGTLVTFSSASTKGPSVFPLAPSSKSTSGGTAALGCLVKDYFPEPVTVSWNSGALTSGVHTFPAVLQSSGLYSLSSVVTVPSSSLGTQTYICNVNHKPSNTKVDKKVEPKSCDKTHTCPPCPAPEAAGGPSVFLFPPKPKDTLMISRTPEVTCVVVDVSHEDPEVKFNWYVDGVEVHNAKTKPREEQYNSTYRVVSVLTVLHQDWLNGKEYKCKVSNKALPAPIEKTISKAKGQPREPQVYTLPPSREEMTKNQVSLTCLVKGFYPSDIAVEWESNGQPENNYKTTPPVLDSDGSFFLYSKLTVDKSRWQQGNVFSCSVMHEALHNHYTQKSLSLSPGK
# light: B2 light with T27Q, D31M, L50Q, A51G, R55W, S91T, R93S, L94F
# notes: also called PR-1358317
# B4: DVD4-h1B12.A1-SS-X3, human anti-IL-1α/β DVD IgG1/k mut (234,235) (bispecific antibody)
# heavy: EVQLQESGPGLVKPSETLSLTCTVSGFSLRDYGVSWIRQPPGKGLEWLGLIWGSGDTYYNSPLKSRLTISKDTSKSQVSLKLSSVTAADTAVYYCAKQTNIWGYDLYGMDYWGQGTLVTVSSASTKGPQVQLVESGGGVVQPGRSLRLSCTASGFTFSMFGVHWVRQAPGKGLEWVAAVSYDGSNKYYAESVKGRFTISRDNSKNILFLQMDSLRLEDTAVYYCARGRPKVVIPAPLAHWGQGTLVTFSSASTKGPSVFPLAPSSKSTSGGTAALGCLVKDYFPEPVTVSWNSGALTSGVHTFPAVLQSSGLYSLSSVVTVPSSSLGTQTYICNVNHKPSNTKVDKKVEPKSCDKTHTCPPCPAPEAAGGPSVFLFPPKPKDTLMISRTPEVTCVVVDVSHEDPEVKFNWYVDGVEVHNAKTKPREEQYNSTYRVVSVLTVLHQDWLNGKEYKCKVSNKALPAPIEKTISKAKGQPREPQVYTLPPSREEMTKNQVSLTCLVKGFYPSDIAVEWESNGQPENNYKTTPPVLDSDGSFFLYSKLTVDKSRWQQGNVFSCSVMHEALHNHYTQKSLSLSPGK
# light: B2 light with T25A, T27Q, D31M, L50Q, S52N, R55P, R93W
# notes: also called PR-1358319
# B5: DVD5-h1B12.A3-SS-X3, human anti-IL-1α/β DVD IgG1/k mut (234,235) (bispecific antibody)
# heavy: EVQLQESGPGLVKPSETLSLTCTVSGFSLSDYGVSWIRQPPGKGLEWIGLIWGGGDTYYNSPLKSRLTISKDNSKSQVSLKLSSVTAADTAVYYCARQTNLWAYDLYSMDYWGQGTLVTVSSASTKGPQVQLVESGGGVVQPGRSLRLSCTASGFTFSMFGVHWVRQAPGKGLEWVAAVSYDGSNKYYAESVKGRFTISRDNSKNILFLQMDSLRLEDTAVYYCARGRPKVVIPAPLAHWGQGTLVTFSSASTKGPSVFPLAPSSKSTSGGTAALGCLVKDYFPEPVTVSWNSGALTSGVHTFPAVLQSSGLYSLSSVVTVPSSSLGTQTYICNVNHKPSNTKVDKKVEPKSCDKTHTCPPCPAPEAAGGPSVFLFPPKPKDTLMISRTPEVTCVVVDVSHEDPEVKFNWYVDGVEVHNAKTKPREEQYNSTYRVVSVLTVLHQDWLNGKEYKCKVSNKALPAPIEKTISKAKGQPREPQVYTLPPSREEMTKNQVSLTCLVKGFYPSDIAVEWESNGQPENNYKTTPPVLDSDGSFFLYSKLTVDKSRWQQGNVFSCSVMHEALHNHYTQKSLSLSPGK
# light: B2 light with T25A, A51G
# notes: also called PR-1358321
# B6: h1B12-AM1, affinity-matured h1B12.1 IgG1/k mut (234,235) mAb (scFv clone 13) (antibody, V domains shown)
# VH: B1 VH with L48I, G54S, R99T, T100N, L101I, G103A, G108S
# VL: DIQMTQSPSSLSASVGDRVTITCQTSTDIDDDLNWYQQKPGKAPKLLISLASTLRPGVPSRFSGSGSGTDFTFTISSLQPEDFATYYCLQSDRLPLTFGQGTKLEIKR
# notes: also called PR-1354589
# B7: h1B12-AM2, affinity-matured h1B12.1 IgG1/k mut (234,235) mAb (scFv clone 21) (antibody, V domains shown)
# VH: B1 VH with D31E, Y32F, L48I, T100N, G103A
# VL: B6 VL with T27Q, D31M, L50Q, A51G, R55W, S91T, R93S, L94F
# notes: also called PR-1354591
# B8: h1B12-AM4, affinity-matured h1B12.1 IgG1/k mut (234,235) mAb (scFv clone A1) (antibody, V domains shown)
# VH: B1 VH with S30R, G54S, N73T, R99T, T100N, L101I
# VL: B6 VL with T25A, T27Q, D31M, L50Q, S52N, R55P, R93W
# notes: also called PR-1354594
# B9: h1B12-AM3, affinity-matured h1B12.1 IgG1/k mut (234,235) mAb (scFv clone 34) (antibody, V domains shown)
# VH: B1 VH with L48I, G54S, N73T, R99T, T100N, G103A, G108S
# VL: B6 VL with T25A, T27Q, T53I, R93S, L94F
# notes: also called PR-1354592
# Molecular target: T5, recombinant human IL-1β (human, UniProt P01584 117-269)
# Test: cell-based or functional assay
row,Binder,"Potency IC50 (pM), MRC-5 bioassay (IL-8 secretion) [pM]"
1,B1,913

# Molecular target: T6, purified native human IL-1β (human, UniProt P01584 117-269)
# Test: cell-based or functional assay
row,Binder,"Potency IC50 (pM), MRC-5 bioassay (IL-8 secretion) [pM]"
1,B1,329

# Molecular target: T1, recombinant cynomolgus IL-1β
# Test: cell-based or functional assay
row,Binder,"Potency IC50 (pM), MRC-5 bioassay (IL-8 secretion) [pM]"
1,B1,410

# Molecular target: T5, recombinant human IL-1β
# Test: cell-based or functional assay
# Remark: another data set of the same source
row,Binder,"Potency (IC50) pM, MRC-5 bioassay [pM]"
1,B2,55.9
2,B3,48.6
3,B4,58.6
4,B5,51.2

# Molecular target: T6, purified native human IL-1β
# Test: cell-based or functional assay
# Remark: another data set of the same source
row,Binder,"Potency (IC50) pM, MRC-5 bioassay [pM]"
1,B2,1.64
2,B3,1.91
3,B4,2.46
4,B5,4.27

# Molecular target: T2, recombinant human IL-1α
# Test: cell-based or functional assay
row,Binder,"Potency (IC50) pM, MRC-5 bioassay [pM]"
1,B2,45.4
2,B3,42.8
3,B4,38.6
4,B5,44.3

# Molecular target: T3, recombinant cynomolgus IL-1α
# Test: cell-based or functional assay
row,Binder,"Potency (IC50) pM, MRC-5 bioassay [pM]"
1,B2,2440
2,B3,1640
3,B4,2580
4,B5,1920

# Molecular target: T4, native human IL-1α present in crude …
# Test: cell-based or functional assay
row,Binder,"Potency (IC50) pM, MRC-5 bioassay [pM]"
1,B2,24.4
2,B3,72
3,B4,50.9
4,B5,57.6

# Molecular target: T1, recombinant cynomolgus IL-1β
# Test: cell-based or functional assay
# Remark: another data set of the same source
row,Binder,"Potency (IC50) pM, MRC-5 bioassay [pM]"
1,B2,3.62
2,B3,1.86
3,B4,4.02
4,B5,6.56

# Molecular target: T5, recombinant human IL-1β
# Test: indirect ELISA: mAb captured on goat anti-human IgG, biotinylated IL-1β titrated
# Protocol: (§1) An indirect ELISA was performed to assess the relative affinity of the affinity matured h1B12.1 mAbs to a human chimeric version of the murine 1B12 mAb. An ELISA plate was coated with goat anti-human IgG (Jackson Immunoresearch cat#109-005-098) at 0.5 ug/mL overnight. The plate was blocked with 5% milk for 1 hour and washed three times with TPBS. Affinity-matured h1B12.1 antibodies and human IgG control (Sigma cat#12511) were incubated on the plate for 30 min at 0.2 μg/mL and then the plates were washed three times. A titration of biotinylated human IL-1β or biotinylated cyno IL-1β was added to the plate, starting at 10 nM and decreasing in concentration following a series of 1:3 dilutions. Binding of biotinylated IL-1β was detected with a 1:10000 dilution of peroxidase-conjugated streptavidin (Jackson Immunoresearch cat#016-030-084) and TMB substrate (Invitrogen). The data were fit in Graphpad prism to determine the EC₅₀ values.
row,Binder,EC50 [pM]
1,B6,31
2,B7,26
3,B8,31
4,B9,33

# Molecular target: T1, recombinant cynomolgus IL-1β
# Test: as above
# Protocol: as §1
row,Binder,EC50 [pM]
1,B6,26
2,B7,34
3,B8,25
4,B9,32

# Molecular target: T5, recombinant human IL-1β
# Test: SPR (BIAcore), DVD-Ig captured via goat anti-human IgG Fc
# Protocol: (§2) Goat IgGs specific to human IgG Fc were covalently linked to the carboxy methyl dextran matrix on the CMS biosensor chip via free amine groups using an amine coupling kit and the immobilization wizard option in the Biacore instruments controlling software. Specifically, carboxyl groups of the dextran matrix on the chip were activated with NHS and EDC. Goat anti-human IgG Fc antibodies (25 μg/mL), diluted in 10 mM sodium acetate, pH 4.5, were injected across the activated surface. Once the level of binding response reached the desired value, unreacted groups were deactivated by injection of 1M ethanolamine. For binding of IL-1α & IL-1β to captured Ig, a 1 μg/mL concentration of Ig in HBS-EP+ was injected over the goat anti-human IgG Fc surface at a flow rate of 10 μL/min for 1 minute. The net difference in the baseline signal and the signal after the completion of the Ig injection was taken to represent the amount of bound Ig.
# (§3) The potency of the 5 DVD-Igs containing affinity matured h1B12.1 domains to recombinant and native IL-1 antigens was determined using the MRC-5 bioassay as shown in Table 24. The binding kinetics of the DVD-Igs to recombinant human and cynomolgus IL-1α and IL-1β were determined using surface plasmon resonance. In some cases, the off-rate could not be determined as they reached the limit of detection of the instrument.
Binder,Kd [pM],koff [s⁻¹],kon [M⁻¹ s⁻¹]
B2,0.22,5.1e-06,2.3e+07
B3,0.2,5.1e-06,2.5e+07
B4,≤ 0.98,≤ 1e-05,1.1e+07
B5,0.5,1.3e-05,2.6e+07

# Molecular target: T2, recombinant human IL-1α
# Test: as above
# Protocol: as §2, §3
Binder,Kd [pM],koff [s⁻¹],kon [M⁻¹ s⁻¹]
B2,21,2.9e-06,140000
B3,120,1.6e-05,140000
B4,200,3.6e-05,180000
B5,10,1.6e-06,150000

# Molecular target: T3, recombinant cynomolgus IL-1α
# Test: as above
# Protocol: as §2, §3
Binder,Kd [pM],koff [s⁻¹],kon [M⁻¹ s⁻¹]
B2,2300,0.00023,100000
B3,2000,0.00021,100000
B4,2600,0.00035,130000
B5,2400,0.00027,110000

# Molecular target: T1, recombinant cynomolgus IL-1β
# Test: as above
# Protocol: as §2, §3
Binder,Kd [pM],koff [s⁻¹],kon [M⁻¹ s⁻¹]
B2,1.5,1.7e-05,1.2e+07
B3,1.6,1.8e-05,1.1e+07
B4,1.8,9.6e-06,5.3e+06
B5,1,1.3e-05,1.3e+07
